Laboratory results as given in article PMC8937303 (Molecular Cell, 2022).
Values belong to the binder of their own block, whether it stands above or below them.

How the values were obtained:
[1] = target: T1, SHP2_(2SH2) (UniProt Q06124 1-221); experiment: pull-down
T1 sequence (looked up): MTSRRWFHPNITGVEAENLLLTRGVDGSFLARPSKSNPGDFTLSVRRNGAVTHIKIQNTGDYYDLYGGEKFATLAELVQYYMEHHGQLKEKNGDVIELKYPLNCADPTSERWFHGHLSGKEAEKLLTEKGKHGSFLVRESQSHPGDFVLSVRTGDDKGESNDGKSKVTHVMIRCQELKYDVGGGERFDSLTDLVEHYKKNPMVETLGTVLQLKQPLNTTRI

[2] = target: T1, SHP2_(2SH2); experiment: ITC
[3] = target: T2, GST-SHP2 (UniProt Q06124 1-593); experiment: pull-down
T2 sequence (looked up): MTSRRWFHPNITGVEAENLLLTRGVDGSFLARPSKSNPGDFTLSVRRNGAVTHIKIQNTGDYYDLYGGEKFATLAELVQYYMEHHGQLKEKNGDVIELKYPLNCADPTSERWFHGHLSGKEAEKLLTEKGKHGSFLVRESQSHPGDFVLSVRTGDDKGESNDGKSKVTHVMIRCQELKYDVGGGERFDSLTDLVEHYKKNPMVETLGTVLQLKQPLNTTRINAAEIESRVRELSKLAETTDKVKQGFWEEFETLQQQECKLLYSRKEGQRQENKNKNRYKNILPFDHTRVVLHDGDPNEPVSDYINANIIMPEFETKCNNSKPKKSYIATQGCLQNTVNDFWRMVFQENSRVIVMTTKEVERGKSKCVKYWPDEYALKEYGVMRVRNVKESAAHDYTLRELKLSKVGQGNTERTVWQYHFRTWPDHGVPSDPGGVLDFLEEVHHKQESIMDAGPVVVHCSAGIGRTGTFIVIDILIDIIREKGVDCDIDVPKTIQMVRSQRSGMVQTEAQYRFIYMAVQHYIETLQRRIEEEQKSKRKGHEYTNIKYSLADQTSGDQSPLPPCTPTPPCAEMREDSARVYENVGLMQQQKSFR

binding result [1]: binds
B1: GST-pC58 (domain or fragment, UniProt P21802 763-821, looked up)
chain: LTTNEEYLDLSQPLEQYSPSYPDTRSSCSSGDDSVFSPDPMPYEPCLPQYPHINGSVKT
modifications: tyrosine phosphorylated in vitro

Kd [2]: ~8 µM
stoichiometry N [2]: 1
B2: pFGFR2C58 (domain or fragment, UniProt P21802 764-821, looked up)
chain: TTNEEYLDLSQPLEQYSPSYPDTRSSCSSGDDSVFSPDPMPYEPCLPQYPHINGSVKT
modifications: tyrosine phosphorylated in vitro (sites not printed for the preparation)

binding result [3]: binds
B3: pFGFR2_(Cyto) (domain or fragment, UniProt P21802 400-821, looked up)
chain: MKNTTKKPDFSSQPAVHKLTKRIPLRRQVTVSAESSSSMNSNTPLVRITTRLSSTADTPMLAGVSEYELPEDPKWEFPRDKLTLGKPLGEGCFGQVVMAEAVGIDKDKPKEAVTVAVKMLKDDATEKDLSDLVSEMEMMKMIGKHKNIINLLGACTQDGPLYVIVEYASKGNLREYLRARRPPGMEYSYDINRVPEEQMTFKDLVSCTYQLARGMEYLASQKCIHRDLAARNVLVTENNVMKIADFGLARDINNIDYYKKTTNGRLPVKWMAPEALFDRVYTHQSDVWSFGVLMWEIFTLGGSPYPGIPVEELFKLLKEGHRMDKPANCTNELYMMMRDCWHAVPSQRPTFKQLVEDLDRILTLTTNEEYLDLSQPLEQYSPSYPDTRSSCSSGDDSVFSPDPMPYEPCLPQYPHINGSVKT
modifications: tyrosine phosphorylated in vitro (sites not printed for the preparation)
